Experimental data reported in doi:10.1101/575910 (bioRxiv, 2019).

Columns and labels:
[1] = molecular target: N-terminal region of Cul3 (Cul3a residues 1-379) (zebrafish, UniProt F6NVK8 1-379); assay: MST
[2] = molecular target: Cul3 NTD lacking the first 18 amino acids (zebrafish, UniProt F6NVK8 19-379); assay: MST

Binder	Kd [1] [nM]	Kd [2] [nM]
BTB-BACK fragment of Btbd6 (Btbd6a residues 119-361) (domain or fragment, NT-647 amine-reactive dye (RED-NHS kit) where used as the labelled partner in MST) SAHPTLRERNALMFNNEQMADVHFIVGPPGESQRVPAHKYVLAVGSSVFCAMFYGDLAEGDSDIHIPDVEPAAFLILLKYMYSDEIELAPDTVLATLYAAKKYLVSALARACVGFLETSLEARNACVLLSQSRLFEEPELTQRCWEVIDAQAELALRSEGFSEIDLPTLESILHRETLNVKESVVFQAVLGWADAECRRQGLSPTSQNQRSVLGKALHLVRLPSMTLQEFADGAAQVDILTLE	12	
BTB domain of Plzf (Plzfa residues 8-126) (domain or fragment, NT-647 amine-reactive dye (RED-NHS kit) where used as the labelled partner in MST) MIQLQNPNHPNALLHKANQMRLAGTLCDVVIMVDSQEFHAHRTVLACTSKMFEILFHRNSQHYTLDFLSPKTFQQILEYAYTATLQAKVEDLDDLLYAAEILEIEYLEEQCLKILETIQ	2900	≥ 20000
